T1: mouse B7-H4-his (mouse, UniProt Q7TSP5 25-257)
T1 construct: also called mB7-H4-his; mB7-H4-His; not shown: his tag
T1 sequence: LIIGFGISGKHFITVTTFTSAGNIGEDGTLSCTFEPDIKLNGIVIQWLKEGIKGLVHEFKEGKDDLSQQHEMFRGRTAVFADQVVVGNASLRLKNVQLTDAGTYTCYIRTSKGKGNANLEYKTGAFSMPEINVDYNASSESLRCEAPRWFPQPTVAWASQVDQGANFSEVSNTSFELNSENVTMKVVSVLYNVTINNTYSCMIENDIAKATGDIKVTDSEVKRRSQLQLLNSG

T2: human B7-H4-his (human, UniProt Q7Z7D3 25-259)
T2 construct: also called hB7-H4-his; hB7-H4 his; not shown: his tag
T2 sequence: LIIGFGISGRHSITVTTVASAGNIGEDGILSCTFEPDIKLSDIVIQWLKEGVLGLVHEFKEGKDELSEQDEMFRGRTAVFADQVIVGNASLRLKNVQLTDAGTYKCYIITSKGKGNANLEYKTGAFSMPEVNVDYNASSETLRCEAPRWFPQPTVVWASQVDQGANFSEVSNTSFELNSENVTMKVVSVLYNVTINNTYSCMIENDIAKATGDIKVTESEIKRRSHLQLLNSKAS

T3: hB7-H4 (soluble human B7-H4, construct not named) (human, UniProt Q7Z7D3 25-259, limits assumed)
T3 construct: also called soluble hB7-H4
T3 sequence: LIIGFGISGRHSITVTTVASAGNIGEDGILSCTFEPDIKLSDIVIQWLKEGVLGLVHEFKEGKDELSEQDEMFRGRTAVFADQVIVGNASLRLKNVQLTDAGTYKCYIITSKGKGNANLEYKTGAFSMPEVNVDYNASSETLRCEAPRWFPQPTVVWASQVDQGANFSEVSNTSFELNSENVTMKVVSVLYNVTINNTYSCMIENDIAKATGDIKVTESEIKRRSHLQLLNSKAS

T4: mB7-H4 (soluble mouse B7-H4, construct not named) (mouse, UniProt Q7TSP5 25-257, limits assumed)
T4 sequence: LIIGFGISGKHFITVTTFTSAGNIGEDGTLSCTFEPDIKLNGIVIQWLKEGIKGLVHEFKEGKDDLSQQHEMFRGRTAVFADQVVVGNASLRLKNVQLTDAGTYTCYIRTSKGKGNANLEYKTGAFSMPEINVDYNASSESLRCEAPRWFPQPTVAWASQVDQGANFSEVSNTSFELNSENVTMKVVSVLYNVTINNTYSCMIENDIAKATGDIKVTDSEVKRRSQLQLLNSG

T5: mouse B7-H4 expressed on cells (mouse, UniProt Q7TSP5 25-257)
T5 construct: also called cellular mB7-H4; mB7-H4/CT26
T5 sequence: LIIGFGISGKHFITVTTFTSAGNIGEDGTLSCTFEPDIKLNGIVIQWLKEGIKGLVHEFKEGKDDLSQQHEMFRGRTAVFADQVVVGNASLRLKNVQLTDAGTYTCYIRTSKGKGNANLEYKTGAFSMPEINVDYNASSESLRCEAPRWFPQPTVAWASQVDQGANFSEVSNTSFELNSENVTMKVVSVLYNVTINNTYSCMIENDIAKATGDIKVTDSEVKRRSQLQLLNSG

T6: human B7-H4 expressed on cells (human, UniProt Q7Z7D3 25-282)
T6 construct: Transfected CHO cells or tumor cell lines that carry hB7-H4; also called cellular hB7-H4
T6 sequence: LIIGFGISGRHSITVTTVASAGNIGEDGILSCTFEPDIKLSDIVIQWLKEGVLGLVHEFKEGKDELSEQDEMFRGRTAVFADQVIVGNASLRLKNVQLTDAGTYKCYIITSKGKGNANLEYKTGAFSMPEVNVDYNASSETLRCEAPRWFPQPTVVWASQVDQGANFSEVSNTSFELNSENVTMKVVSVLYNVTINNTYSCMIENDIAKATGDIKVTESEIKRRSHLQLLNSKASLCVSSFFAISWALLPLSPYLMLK


Columns and labels:
[1] = molecular target: T7, mouse B7-H4-Fc (mouse; human); test: SPR (Biacore)
T7 construct: also called mB7-H4-Fc; mB7-H4-hFc
T7 sequence (chain, as listed by the source): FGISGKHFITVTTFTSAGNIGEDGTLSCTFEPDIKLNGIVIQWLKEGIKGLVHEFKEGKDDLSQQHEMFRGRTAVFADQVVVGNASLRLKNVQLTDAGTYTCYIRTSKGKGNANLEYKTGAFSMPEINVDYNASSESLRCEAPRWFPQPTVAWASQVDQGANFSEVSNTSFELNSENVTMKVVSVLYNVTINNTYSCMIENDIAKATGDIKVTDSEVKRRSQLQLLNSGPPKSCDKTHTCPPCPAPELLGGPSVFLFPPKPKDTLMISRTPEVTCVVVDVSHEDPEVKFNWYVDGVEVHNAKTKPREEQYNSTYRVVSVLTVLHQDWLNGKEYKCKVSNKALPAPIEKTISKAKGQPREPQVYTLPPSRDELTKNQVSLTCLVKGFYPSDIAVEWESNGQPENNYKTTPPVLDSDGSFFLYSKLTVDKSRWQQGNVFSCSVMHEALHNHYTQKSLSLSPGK

[2] = molecular target: T1, mouse B7-H4-his; test: SPR (Biacore)
[3] = molecular target: T8, IgV domain of mouse B7-H4-Fc (mouse; human); test: ELISA, coated mB7-H4 IgV domain
T8 construct: also called mB7-H4 IgV domain
T8 sequence (chain, as listed by the source): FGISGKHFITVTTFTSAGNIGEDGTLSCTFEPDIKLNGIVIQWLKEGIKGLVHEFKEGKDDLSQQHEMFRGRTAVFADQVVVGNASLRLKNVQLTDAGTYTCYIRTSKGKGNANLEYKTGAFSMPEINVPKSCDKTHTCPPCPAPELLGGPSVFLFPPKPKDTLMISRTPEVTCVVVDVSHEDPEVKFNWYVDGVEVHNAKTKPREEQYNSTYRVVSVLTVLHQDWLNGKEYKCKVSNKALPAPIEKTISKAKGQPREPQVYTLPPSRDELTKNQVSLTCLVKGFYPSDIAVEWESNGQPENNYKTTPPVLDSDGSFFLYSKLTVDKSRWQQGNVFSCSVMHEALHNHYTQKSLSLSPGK
Experimental: (§1) About 1-2 μg/ml of human or mouse B7-H4-Fc (or his-tagged) was immobilized on ELISA plates (Immuno 2HB, Thermo scientific, cat #3455) at 4° C. overnight. After blocking the plates with 3% PBS+milk, serial diluted antibodies were added to the blocked plates and incubated at RT for 1-1.5 h. After washing the plates with PBS-T (0.05%), horse radish peroxidase (HRP)-conjugated antibody targeting the hFab was added to the plate. Signals were developed by adding 3,3′,5,5′-Tetramethylbenzidine (TMB (followed 1N of H₂SO₄ to stop the reaction. The OD at 450 nm was read by ELISA plate reader (Infinite M1000 from TECAN). GraphPad from Prism was used to plot OD450 vs. antibody concentration curve and to calculate the EC50 values.

[4] = molecular target: T9, IgV domain of human B7-H4-Fc (human); test: ELISA, coated hB7-H4 IgV domain
T9 construct: also called hB7-H4 IgV domain
T9 sequence (chain, as listed by the source): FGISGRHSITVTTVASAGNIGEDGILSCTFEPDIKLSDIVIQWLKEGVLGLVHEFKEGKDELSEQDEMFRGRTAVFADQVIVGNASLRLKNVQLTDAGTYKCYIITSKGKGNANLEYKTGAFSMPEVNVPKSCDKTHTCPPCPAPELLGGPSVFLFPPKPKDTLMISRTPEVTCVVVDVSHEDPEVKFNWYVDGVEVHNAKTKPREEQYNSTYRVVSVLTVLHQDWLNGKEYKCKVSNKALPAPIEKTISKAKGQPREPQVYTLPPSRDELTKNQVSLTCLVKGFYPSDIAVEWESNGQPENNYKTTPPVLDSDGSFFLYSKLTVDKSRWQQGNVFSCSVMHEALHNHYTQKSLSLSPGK
Experimental: as §1

[5] = molecular target: T10, human B7-H4-Fc (human); test: SPR (Biacore)
T10 construct: also called hB7-H4-Fc; hB7-H4 Fc
T10 sequence (chain, as listed by the source): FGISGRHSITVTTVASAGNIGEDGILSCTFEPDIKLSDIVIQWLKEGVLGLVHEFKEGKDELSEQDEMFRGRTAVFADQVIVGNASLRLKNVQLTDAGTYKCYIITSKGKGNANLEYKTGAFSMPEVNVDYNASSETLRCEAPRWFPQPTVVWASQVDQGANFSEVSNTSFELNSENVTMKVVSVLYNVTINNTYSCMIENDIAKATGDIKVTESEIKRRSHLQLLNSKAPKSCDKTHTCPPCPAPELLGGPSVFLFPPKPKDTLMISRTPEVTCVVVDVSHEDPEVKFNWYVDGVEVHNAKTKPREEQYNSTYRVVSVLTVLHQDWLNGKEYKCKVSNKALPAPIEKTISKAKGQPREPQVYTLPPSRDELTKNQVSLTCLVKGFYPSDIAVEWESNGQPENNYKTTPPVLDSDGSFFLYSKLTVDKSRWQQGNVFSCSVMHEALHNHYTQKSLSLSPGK
Experimental: (§2) Surface plasmon resonance experiments were performed using a Biacore T200 instrument equipped with CM5 sensor chips. The system was equilibrated in running buffer HBS-EP pH 7.4. The ligands were immobilized using amine-coupling chemistry. The surfaces of flow cells one through four were activated for 5 min using an amine coupling kit at a flow rate of […]. The ligands (human B7-H4-Fc, human B7-H4-hism and mouse B7-H4-Fc; at a concentration of 5 μg/ml in 10 mM sodium acetate, pH 5.0) were immobilized at a density of 50-100 RU on flow cell 2, 3, 4 respectively. Flow cell 1 was left blank to serve as a reference surface. All flow cell surfaces were blocked with a 5 min injection of 1 M ethanolamine, pH 8.0. To collect kinetic binding data, the respective analyte (diluted in 1×HBS-EP buffer, pH 7.4) was injected over the four flow cells at concentrations of 100 nM to 0.1 nM at a flow rate of […] and at a temperature of 25° C. The protein complex was allowed to associate and dissociate for 180 seconds and 1000 or 1200 seconds, respectively. The surfaces were regenerated with a 30 second injection of 1.5 M NaCl/0.05 M NaOH. The data were fit to a simple 1:1 interaction model using the Langmuir fit option available within the Biaevaluaton software
(§3) The kinetics for binding of the different antibodies to their targets were examined using Biacore analysis.

[6] = molecular target: T2, human B7-H4-his; test: SPR (Biacore)
Experimental: as §2, §3

[7] = molecular target: T3, hB7-H4 (soluble human B7-H4, construct …); test: ELISA, hB7-H4
Experimental: as §1

[8] = molecular target: T4, mB7-H4 (soluble mouse B7-H4, construct …); test: SPR (Biacore)
Experimental: as §2

[9] = molecular target: T3, hB7-H4 (soluble human B7-H4, construct …); test: SPR (Biacore)
Experimental: as §2

[10] = molecular target: T4, mB7-H4 (soluble mouse B7-H4, construct …); test: ELISA, mB7-H4
Experimental: as §1

[11] = molecular target: T5, mouse B7-H4 expressed on cells; test: flow cytometry, mB7-H4/CT26 cells
Experimental: (§4) Cells were harvested, washed once, and then re-suspended to the concentration of 1×10⁶ cells/ml in ice cold FACS Buffer. 25 μl of cell suspension was added to each well of a 96-well round-bottom microliter plate. Serially diluted antibodies or fusion proteins were added to each well and incubated for 1 hour at 4° C. Cells were washed three times by centrifugation at 1500 rpm for 5 minutes, and then stained with secondary antibody (1:200 dilution) for 30 min at 4° C. in the dark. Cells were washed once, re-suspended in 100 μl PBS buffer and then analyzed using Guava Flow Cytometry EasyCyte system.

[12] = molecular target: T6, human B7-H4 expressed on cells; test: flow cytometry, SK-BR-3 cells
Experimental: as §4

[13] = molecular target: T7, mouse B7-H4-Fc; test: ELISA, coated mB7-H4-Fc
Experimental: as §1

| Kd [1] [nM] | Kd [2] [nM] | binding result [3] | binding result [4] | Kd [5] [nM] | Kd [6] [nM] | EC50 [7] [nM] | Kd [8] [nM] | Kd [9] [nM] | EC50 [10] [nM] | EC50 [11] [nM] | EC50 [12] [nM] | binding result [13] | Binder |
| --- | --- | --- | --- | --- | --- | --- | --- | --- | --- | --- | --- | --- | --- |
| 13.1 | 7.83 | no binding (tested: 20 nM) | no binding (tested: 20 nM) | 12.1 | 5.19 |  |  |  |  |  |  |  | 5G6/5G6 (antibody, human IgG1, V domains shown) VH: QVQLVQSGAEVKKPGASVKVSCKASGYTFTSYYMHWVRQAPGQGLEWLGWVNPNTGTTRFAQKFQGRVTMTRDTSTSTVYMELSSLRSEDTAVYYCARDANYYYGMDVWGQGTMVTVSS VL: DIVMTQSPDSLAVSLGERATINCKSSQSVLYSSNNKNYLAWYQQKPGQPPKLLIYWASTRESGVPDRFSGSGSGTDFTLTISSLQAEDVATYYCQKYNSALPITFGQGTRLEIK |
| 0.642 | 1.52 |  |  | 1.8 | 0.85 | 0.18 | 4.78 | 5.97 | 0.104 | 122 | 126 |  | 9D11/9D11 (antibody, human IgG1, V domains shown) VH: QVQLVQSGAEVKKPGASVKVSCKASGYTFTSYGISWVRQAPGQGLEWVGVINPNGGTTTYAQTFQGRVTMTRDTSTSTVYMELSSLRSEDTAVYYCARTGYSSGWAFDYWGRGTLVTVSS VL: not shown |
|  |  |  |  |  |  | 0.261 | 8.46 | 10.6 | 0.162 | 45.3 | 22.5 | binds | 9D11/67G3 (antibody, human IgG1, V domains shown, 9D11 VH with 67G3 VL) VH: QVQLVQSGAEVKKPGASVKVSCKASGYTFTSYGISWVRQAPGQGLEWVGVINPNGGTTTYAQTFQGRVTMTRDTSTSTVYMELSSLRSEDTAVYYCARTGYSSGWAFDYWGRGTLVTVSS VL: not shown |
|  |  |  |  |  |  | 0.1 | 6.08 | 7.09 | 0.105 | 54.3 | 24 |  | 9D11/67H9 (antibody, human IgG1, V domains shown, 9D11 VH with 67H9 VL) VH: QVQLVQSGAEVKKPGASVKVSCKASGYTFTSYGISWVRQAPGQGLEWVGVINPNGGTTTYAQTFQGRVTMTRDTSTSTVYMELSSLRSEDTAVYYCARTGYSSGWAFDYWGRGTLVTVSS VL: not shown |
|  |  |  |  |  |  | 0.115 | 2.8 | 15 | 0.082 | 45.7 | 9.2 | binds | 9D11/67C6 (antibody, human IgG1, V domains shown, 9D11 VH with 67C6 VL) VH: QVQLVQSGAEVKKPGASVKVSCKASGYTFTSYGISWVRQAPGQGLEWVGVINPNGGTTTYAQTFQGRVTMTRDTSTSTVYMELSSLRSEDTAVYYCARTGYSSGWAFDYWGRGTLVTVSS VL: not shown |

From patent US20230312724A1 (KADMON, published 2023)
